Results: patent US5444153, “Variants of PAI-2” (Biotech Australia Pty Limited, dated 1995)

What was measured:
Assay in all cases: incubation of the purified proteins; SDS-PAGE and western blot with anti-PAI-2
[1] = molecular target: u-PA (Behring) (Homo sapiens (Human), UniProt P00749)
[2] = molecular target: two chain t-PA (American Diagnostica) (Homo sapiens (Human), UniProt P00750)
[3] = molecular target: single chain t-PA (American Diagnostica) (Homo sapiens (Human), UniProt P00750)

Row | binding result [1] | binding result [2] | binding result [3] | Binder
1 | binds | binds | binds | PAI-2 deletion variant Δ74-96 (as expressed from pBTA829) (other) MEDLCVANTLFALNLFKHLAKASPTQNLFLSPWSISSTMAMVYMGSRGSTEDQMAKVLQFNEVGANAVTPMTPAQAADKIHSSFRSLSSAINASTGNYLLESVNKLFGEKSASFREEYIRLCQKYYSSEPQAVDFLECAEEARKKINSWVKTQTKGKIPNLLPEGSVDGDTRMVLVNAVYFKGKWKTPFEKKLNGLYPFRVNSAQRTPVQMMYLREKLNIGYIEDLKAQILELPYAGDVSMFLLLPDEIADVSTGLELLESEITYDKLNKWTSKDKMAEDEVEVYIPQFKLEEHYELRSILRSMGMEDAFNKGRANFSGMSERNDLFLSEVFHQAMVDVNEEGTEAAAGTGGVMTGRTGHGGPQFVADHPFLFLIMHKITNCILFFGRFSSP
2 | – | binds | binds | native PAI-2 (as expressed from pBTA641) (other) MEDLCVANTLFALNLFKHLAKASPTQNLFLSPWSISSTMAMVYMGSRGSTEDQMAKVLQFNEVGANAVTPMTPENFTSCGFMQQIQKGSYPDAILQAQAADKIHSSFRSLSSAINASTGNYLLESVNKLFGEKSASFREEYIRLCQKYYSSEPQAVDFLECAEEARKKINSWVKTQTKGKIPNLLPEGSVDGDTRMVLVNAVYFKGKWKTPFEKKLNGLYPFRVNSAQRTPVQMMYLREKLNIGYIEDLKAQILELPYAGDVSMFLLLPDEIADVSTGLELLESEITYDKLNKWTSKDKMAEDEVEVYIPQFKLEEHYELRSILRSMGMEDAFNKGRANFSGMSERNDLFLSEVFHQAMVDVNEEGTEAAAGTGGVMTGRTGHGGPQFVADHPFLFLIMHKITNCILFFGRFSSP
3 | – | binds | binds | second form of native PAI-2 (alternative native PAI-2, expressed from pBTA 683) (other) MEDLCVANTLFALNLFKHLAKASPTQNLFLSPWSISSTMAMVYMGSRGSTEDQMAKVLQFNEVGANAVTPMTPENFTSCGFMQQIQKGSYPDAILQAQAADKIHSSFRSLSSAINASTGDYLLESVNKLFGEKSASFREEYIRLCQKYYSSEPQAVDFLECAEEARKKINSWVKTQTKGKIPNLLPEGSVDGDTRMVLVNAVYFKGKWKTPFEKKLNGLYPFRVNSAQRTPVQMMYLREKLNIGYIEDLKAQILELPYAGDVSMFLLLPDEIADVSTGLELLESEITYDKLNKWTSKDKMAEDEVEVYIPQFKLEEHYELRSILRSMGMEDAFNKGRANFSGMSERNDLFLSEVFHQAMVDVNEEGTEAAAGTGGVMTGRTGHGGPQFVADHPFLFLIMHKITKCILFFGRFCSP
